Test results: patent US20190004052A1 (published 2019)
Non-standard residues stand in square brackets, D forms with d. No end group written: not given here. pS = N[C@@H](COP(=O)(O)O)C(=O)O

Target: T1, Phosphopeptide TF1-Pser258 CKEN(pS)PLNVS (human)
T1 construct: Synthetic phosphopeptide
T1 peptide: CKEN[pS]PLNVS
Test: peptide ELISA, optical density (FIG. 7)

binding result: no binding
B1: hybrid IgG2b anti-TF2-Pser253 monoclonal antibody MAb 680 (antibody, V domains shown)
VH: DVQLQESGPGLVKPSQSLSLTCTVTGYSITSDYAWNWIRQFPGNKLEWMGYISYSGSTSYNPSLKSRISITRDTSKNQFFLQLNSVTTEDTATYYCARIRGYLAMDYWGQGTSVTVSS
VL: DIVMTQAAFSNPVTLGTSASISCRSSKSLLHSNGITYLYWYLQKPGQSPQLLIYQMSNLASGVPDRFSSSGSGTDFTLRISRVEAEDVGVYYCAQNLELPPTFGGGTKLEIKR
notes: The Fab portion of IgM clone 4A6-4B5-1E2 was fused onto murine IgG2b light and heavy chains and made in HEK cells; also called M680; hybrid IgG anti-TF2-pser253 M680
